Experimental data taken from patent publication US20170020909A1, “METHODS OF TREATING GLAUCOMA USING AMP-ACTIVATED PROTEIN KINASE (AMPK) ACTIVATORS” (Massachusetts Eye and Ear Infirmary, priority 2014, published 2017).

System: AMPKα
Assay: Time course immunoblot of p-AMPKα (Thr172)/total AMPKα in primary human TM cell lysates
Format: cell-based
Protocol: Primary human trabecular meshwork (TM) cells were isolated, in accordance with the Declaration of Helsinki, and maintained in culture as described previously.^63 Independent primary human TM cell lines were generated from donors ranging in age from 35 to 72 years and no known history of ocular disease. Cell cultures were maintained, unless otherwise stated, in Dulbecco's modified eagle medium (Life Technologies, Grand Island, N.Y.) containing 20% fetal bovine serum, 1% L-glutamine (2 mM), and gentamicin (0.1 mg/ml) at 37° C. in a 10% CO2 atmosphere. Only TM cells from third through fifth passage were used. All experiments were performed using at least three different primary human TM cell lines.
At the conclusion of each experiment for matricellular and ECM protein detection, conditioned media (CM) from TM cell cultures was harvested and centrifuged at 5000 rpm for 10 minutes at 4° C. The supernatant was then concentrated (Amicon Ultra-4 Filter Unit, 10 kDa; Millipore, Milford, Mass.), and protein content quantified using the DC Protein Assay kit adhering to manufacturer's protocols (Bio-Rad, Hercules, Calif.). For AMPK protein detection, cells were lysed for 3 minutes on ice with cold 1×RIPA buffer containing 0.5% Aprotinin, 0.1% EDTA, 1% EGTA, 0.5% PMSF, and 0.01% Leupeptin. Samples were then centrifuged at 14,000 rpm for 15 minutes at 4° C. and protein content quantified. In all experiments, equal amounts of protein were treated with 6× reducing buffer and boiled for 5 minutes. Samples were then electrophoresed in 10% SDS-polyacrylamide gels, alongside a pre-stained protein marker (Cell Signaling Technology Inc., Danvers, Ma). For conditioned media loading control, the resultant gels were stained with 0.1% Coomassie Brilliant Blue G-250 (Bio-Rad, Hercules Calif.) for 3 hours and were destained with fixing/destaining solution until clear bands were visible and contrasted well with the true blue background. Otherwise, proteins were transferred to nitrocellulose membranes (0.45-μm pore size; Invitrogen). […] The membranes were then washed three times with 1×TBS-T, scanned, and integrated band intensities were calculated using an infrared imaging system (Odyssey; Li-Cor, Lincoln, Nebr.). […]

B1: TGF-β2: activated transforming growth factor-β2 (R&D Systems) used to stimulate TM cells (protein, UniProt P61812 303-414, looked up)
Transforming growth factor …: ALDAAYCFRNVQDNCCLRPLYIDFKRDLGWKWIHEPKGYNANFCAGACPYLWSSDTQHSRVLSLYNTINPEASASPCCVSQDLEPLTILYYIGKTPKIEQLSNMIVKSCKCS
phospho-total AMPK ratio difference vs zero time point (2.5 ng/mL TGF-β2, at 30 minutes): no longer significant | decrease of phospho-total AMPK ratio, normalized to the zero time point (2.5 ng/mL TGF-β2, within 15 minutes, human TM cells): 30%
